We go through 15 molecules from patent publication US20120045393A1 (priority 2009, published 2012).

One data set can be described thus: liver homogenate. To be noted: female Tac:NCr:Foxn1^nu/nu mice, 37° C., up to 60 min.
Data set [1] in a line: plasma (blood) and urine samples collected post injection in normal mice. As to conditions: up to 60 min post injection.
The next data set is described as follows: kidney homogenate. As to conditions: female Tac:NCr:Foxn1^nu/nu mice, 37° C., up to 60 min.
Data set [2] in a line: kidney homogenate stock solution. To be noted: female Tac:NCr:Foxn1^nu/nu mice, 37° C., up to 60 min.
Data set [3] has as its system LHRH-II-receptor-positive but LHRH-1-receptor-negative ovarian SK-OV-3 cell lines. As to conditions: cited from earlier work.
The target in data set [4] is LHRH receptor (LHRH binding sites) on EFO-27 human ovarian cancer cells (human). Briefly: internalization/efflux study, cell-associated radioactivity, EFO-27 cells.
Data set [5] has the same target. Briefly: direct binding of 177Lu-labeled peptide to EFO-27 cells, single concentration.
Data set [6] shares this target. Briefly: internalization/efflux study, cell-associated radioactivity, EFO-27 cells, 200 fmoles added/well.
Data set [7] addresses LHRH receptor (LHRH binding sites) on PC-3 human prostate cancer cells (human). The experiment in a line: internalization/efflux study, cell-associated radioactivity, PC-3 cells, 230 fmoles added/well.
The target is the same in data set [8]. The experiment in a line: internalization/efflux study, cell-associated radioactivity, PC-3 cells.
Data set [9] has as its target LHRH receptor (LHRH binding sites) on EFO-27 human ovarian cancer cells (human). The experiment in a line: internalization/efflux study, cell-associated radioactivity, EFO-27 cells, 212 fmoles added/well.
Data set [10] has the same target. The experiment in a line: internalization/efflux study, cell-associated radioactivity, EFO-27 cells, 78 fmoles added/well.
Data set [11] concerns the target T1, LHRH binding sites on EFO-27 human ovarian cancer cells (human).
T1 chain: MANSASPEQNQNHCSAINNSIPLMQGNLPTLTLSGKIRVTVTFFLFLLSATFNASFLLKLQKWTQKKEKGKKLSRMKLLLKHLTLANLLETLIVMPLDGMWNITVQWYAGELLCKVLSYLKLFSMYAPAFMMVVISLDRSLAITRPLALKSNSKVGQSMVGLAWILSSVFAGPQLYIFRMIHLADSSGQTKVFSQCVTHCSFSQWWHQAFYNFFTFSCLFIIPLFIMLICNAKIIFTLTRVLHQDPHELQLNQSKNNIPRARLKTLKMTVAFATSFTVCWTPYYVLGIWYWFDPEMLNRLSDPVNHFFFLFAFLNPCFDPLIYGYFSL
The experiment in a line: competition with [125I-Tyr8]BRU-2477 on EFO-27 cells.

Data set [12] deals with T1, LHRH binding sites (presumed LHRH …). The description is as above.
The target is the same in data set [13]. Described as above.
For data set [14] the target is unchanged. The description is as above.
Data set [15] has as its target LHRH receptor (LHRH binding sites) on EFO-27 human ovarian cancer cells (human). The experiment in a line: internalization/efflux study, cell-associated radioactivity, EFO-27 cells, 203 fmoles added/well.
For data set [16] the target is unchanged. The experiment in a line: saturation binding to EFO-27 cells, single-site fit.
For data set [17] the target is unchanged. Briefly: internalization/efflux study, cell-associated radioactivity, EFO-27 cells, 205 fmoles added/well.
The target in data set [18] is T1, LHRH binding sites (presumed LHRH …). Briefly: competition with [125I-Tyr8]BRU-2477 on EFO-27 cells.
For data set [19] the target is unchanged. Described as above.
The target of data set [20] is LHRH receptor (LHRH binding sites) on EFO-27 human ovarian cancer cells (human). Briefly: internalization/efflux study, cell-associated radioactivity, EFO-27 cells, 292 fmoles added/well.
For data set [21], the target named is T1, LHRH binding sites (presumed LHRH …). Briefly: competition with [125I-Tyr8]BRU-2477 on EFO-27 cells.
In data set [22] the target is LHRH receptor (LHRH binding sites) on EFO-27 human ovarian cancer cells (human). The experiment in a line: internalization/efflux study, cell-associated radioactivity, EFO-27 cells, 156 fmoles added/well.

Entries after “also recorded” stand apart in the source; their conditions may differ. Where two headings read alike, the source gives them in different places. Non-standard residues stand in square brackets, D forms with d. *: point of attachment. Bpa = N[C@@H](Cc1ccc(C(=O)c2ccccc2)cc1)C(=O)O; d2Nal = N[C@H](Cc1ccc2ccccc2c1)C(=O)O; pGlu = O=C1CC[C@@H](C(=O)O)N1; DO3A10CM = not defined here; Bpa4 = non-natural residue; Amfe4 = not defined here; Hpgly = not defined here; Mogly = not defined here; Tha = not defined here; azaGly = NNC(=O)O; Sar = CNCC(=O)O; 125I = [125I]*

“Lu-DOTA-Dnal2-Arg-Trp-Ser-His-Darg-Trp-Bpa4-Pro-azaGly-NH2”: the cleaved bond result in “liver homogenate” is reported as “Bpa48-Pro9, major”; in data set [1], “Bpa48-Pro9, major”; in the data set “kidney homogenate”, “Bpa48-Pro9, major”; in data set [2] it was “Bpa48-Pro9, major; also recorded: Trp7-Bpa48, major”. Besides, the fragment found entry in data set [1] is “BRU-3046; BRU-2813[1-7]-OH”.

In the case of “LHRH-II: native Chicken II LHRH: pGlu-His-Trp-Ser-His-Gly-Trp-Tyr-Pro-Gly-NH2 (EHWSHGWYPG; HELM PEPTIDE1{[Glp].H.W.S.H.G.W.Y.P.G.[am]}$$$$V2.0; SMILES NC(=O)CNC(=O)[C@@H]1CCCN1C(=O)[C@H](Cc1ccc(O)cc1)NC(=O)[C@H](Cc1c[nH]c2ccccc12)NC(=O)CNC(=O)[C@H](Cc1c[nH]cn1)NC(=O)[C@H](CO)NC(=O)[C@H](Cc1c[nH]c2ccccc12)NC(=O)[C@H](Cc1c[nH]cn1)NC(=O)[C@@H]1CCC(=O)N1)”, the “antiproliferative effect” value in data set [3] is listed as “showed antiproliferative effect”.

B1: ^177Lu-BRU-2757 (peptide)
peptide: XHWSHXWXPX
modifications: 177Lu held by the N-terminal DO3A10CM: 177Lu-DO3A10CM-Damfe4-His-Trp-Ser-His-Darg-Trp-Bpa4-Pro-azaGly-NH2
Consider B1, for which the Bound % in data set [4] is 9.5%. In data set [5], the % Bound came to 11.1%. The Bound fmoles in [6] is 19 fmol.

B2: ^177Lu-BRU-2813 (peptide)
peptide: XRWSHXWXPX
modifications: 177Lu held by the N-terminal DO3A10CM: 177Lu-DO3A10CM-Dnal2-Arg-Trp-Ser-His-Darg-Trp-Bpa4-Pro-azaGly-NH2
Consider B2, for which the results for the Bound fmoles in data set [7] and in data set [9] were 44.3 fmol and 40.5 fmol, respectively. For the same molecule, the Bound % in [8] amounted to 19.3%; in data set [4] it was 19.1%. In addition, the % Bound in data set [5] amounted to 18.8%.

B3: ^177Lu-BRU-2796 (peptide)
peptide: DO3A10CM-G[Mogly]HWSH[dR]W[Bpa]P[azaGly]-NH2
modifications: reading uncertain; also: 177Lu complexed by DO3A10CM, printed as 177Lu-DO3A10CM-Gly-Mogly-His-Trp-Ser-His-Darg-Trp-Bpa4-Pro-azaGly-NH2
On to B3, for which the Bound % in data set [4] stood at 1.2%. The Bound fmoles in data set [10] turned out to be 0.93 fmol.

B4: BRU-2724 (peptide)
peptide: DO3A10CM-[Sar]HWSH[dR]WWP[azaGly]-NH2
modifications: reading uncertain
notes: AA8 Trp
With B4, the EC50 in data set [11] and in [12] was 2670 nM throughout.

B5: BRU-3046 (peptide)
peptide: XRWSHXW
modifications: DO3A10CM on N-terminus; AA1 Dnal2; AA6 Darg; AA8-AA10 absent; C-terminal free acid
B5: the EC50 in [13] and in data set [14] was 15900 nM throughout.

B6: ^177Lu-BRU-2756 (peptide)
peptide: DO3A10CM-[Sar][Amfe4]WSH[dR]W[Bpa]P[azaGly]-NH2
modifications: reading uncertain; also: 177Lu complexed by DO3A10CM, printed as 177Lu-DO3A10CM-Sar-Amfe4-Trp-Ser-His-Darg-Trp-Bpa4-Pro-azaGly-NH2
Regarding B6, the Bound % in data set [4] came to 5.1%. This molecule gave a % Bound in [5] of 5.17%. Moreover, the Bound fmoles in data set [6] amounted to 10.2 fmol.

B7: ^177Lu-BRU-2797 (peptide)
peptide: DO3A10CM-G[Hpgly]HWSH[dR]W[Bpa]P[azaGly]-NH2
modifications: reading uncertain; also: 177Lu complexed by DO3A10CM, printed as 177Lu-DO3A10CM-Gly-Hpgly-His-Trp-Ser-His-Darg-Trp-Bpa4-Pro-azaGly-NH2
As to B7, the Bound % in [4] worked out at 2.02%. The same molecule displayed a % Bound in data set [5] of 4.64%. Also, the Bound fmoles in data set [15] is 4.1 fmol.

B8: ^177Lu-BRU-2666 (peptide)
peptide: XHWSHXWXPX
modifications: 177Lu held by the N-terminal DO3A10CM: 177Lu-DO3A10CM-Dnal2-His-Trp-Ser-His-Darg-Trp-Bpa4-Pro-azaGly-NH2
In data set [16], B8 displayed a Kd of 920 nM, a Max. binding (Bmax) (pmoles/10^6 cells) of 183 and a Receptors/cell (receptors/cell) of 1.1e+08. Moreover, in [4], the Bound % is 12.2%. In [5], this molecule registered a % Bound of 13.2%. In [17], the Bound fmoles was found to be 25 fmol.

B9: BRU-3064 (peptide)
peptide: DO3A10CM-[d2Nal]RWSH[dR]W[Bpa4]-OH
modifications: reading uncertain
In the case of B9, the EC50 in data set [13] was 670 nM.

B10: BRU-3110 (peptide)
peptide: DO3A10CM-[d2Nal]RESH[dR]W[Bpa]P[azaGly]-NH2
modifications: reading uncertain
notes: AA3 Glu
Regarding B10, the “fold lower binding potency than BRU-2813” value in data set [18] is around 8 fold. A half-maximal effect in [19] (EC50) was put at 2600 nM.

B11: ^177Lu-BRU-2968 (peptide)
peptide: XRWSHXWXP
modifications: 177Lu held by the N-terminal DO3A10CM: 177Lu-DO3A10CM-Dnal2-Arg-Trp-Ser-His-Darg-Trp-Bpa4-Pro-Da15o3pt
As to B11, the Bound % in data set [4] was 23.6%. Besides, in [5], the % Bound stood at 23.5%. In addition, in data set [20], the Bound fmoles turned out to be 68.8 fmol.

B12: BRU-2769 (peptide)
peptide: DO3A10CM-[Sar]HWS[Tha][dR]W[Bpa]P[azaGly]-NH2
modifications: reading uncertain
As to B12, the “fold lower binding potency than BRU-2443” value in data set [18] was around 8 fold. This molecule had an EC50 in [21] of 7340 nM.

B13: [Darg^6, ^125I-Tyr^8, azaGly^10]-LHRH-II (peptide)
peptide: [pGlu]HWSH[dR]WY(125I)P[azaGly]-NH2
B13: in data set [16], the Kd amounted to 1290 nM, the Max. binding (Bmax) (pmoles/10^6 cells) was found to be 141 and the Receptors/cell (receptors/cell) stood at 8.5e+07. Further, the Bound % in data set [4] is 1.2%. The Bound fmoles in data set [22] came to 1.87 fmol.

As a reminder, the EC50 is the concentration that produces a half-maximal response. The low end stands for greater potency, the high end for weaker potency. For orientation: Kd means the free concentration of one partner at which half of the binding sites on the other are occupied at equilibrium, for simple one-to-one binding. Higher therefore signals a looser complex.
